Assay results taken from patent US9505841B2, “Use of an anti-Ang2 antibody” (Samsung Electronics Co., Ltd., priority 2013, dated 2016).

Experiments:
[1] = test system: LLC (Lewis Lung Carcinoma); experiment: LLC tumor growth model; type: in vivo, mouse; details: LLC in C57BL/6 mice; 10 mg/kg intraperitoneal three times a week; control Fc of IgG1
Procedure: To see the tumor growth inhibitory effects of Ang2 antibody, a […] Xenograft model using a LLC (Lewis Lung Carcinoma) was employed.
LLC cells (ATCC) were cultured using 10% FBS (Gibco)-supplemented DMEM (Gibco) media. 1×10^6 of LLC cells were re-suspended in 100 ul of PBS (Gibco) and then subcutaneously injected into 6˜8-week-old C57BL/6 mice (Jackson Laboratory) anesthetized with 1˜2% isoflurane.
When the size of tumors reached 50˜100 mm^3, anti-Ang2 antibody (10D6) was injected at the concentration of 10 mg/kg via an intraperitoneal injection three times a week and the size of the tumors was measured.
The size of tumor (V) was calculated using the following formula: Volume (V)=(width)2×length/2
For comparison, the same experiment was performed to a control group treated with Fc of IgG1 and a comparative group treated with antibody 4H10 (refer to Example 3).

[2] = test system: E-selectin; experiment: LPS-induced mRNA expression of E-selectin in HUVEC (qPCR); type: cell-based, human; details: 100 ng/ml LPS 5 hours, 0.2 ug/ml Ang1 or 0.1 ug/ml Ang2 + 0.5 ug/ml antibody
Procedure: To see anti-inflammatory effects by antibody 10D6, HUVEC (ATCC) cells (4×10^5) were treated with Ang2 alone or Ang2 together with antibody 10D6, and a group in which Ang1 and Ang2 (R&D systems) and Regeneron Co. antibody (RG antibody) were co-treated was included as a control group. HUVEC cells were treated with 0.2 ug/ml of Ang1, 0.1 ug/ml of Ang2, or 0.1 ug/ml of Ang2 and 0.5 ug/ml of antibody, respectively and after 30-min. pre-incubation, they were treated with 100 ng/ml of LPS (Sigma) to induce inflammatory response and incubated for 5 hours.
The degree of the inflammatory response was identified by measuring the mRNA expression degree of an inflammatory adhesion substance (ICAM-1, E-selectin). The cells were washed using PBS, RNA was extracted using RNeasy Mini kit (Qiagen), and among them, 2 ug of RNA was synthesized into cDNA using Transcriptor First Strand cDNA synthesis kit (Roche). qPCR reaction was performed using RT2 SYBR™ Green Mastermix (Qiagen) and LightCycler™ 480 Real-Time PCR System (Roche). As an internal control for calibrating the amount of RNA in a sample, HPRT1 was used, and qPCR complied with the following procedures with regard to all the primers.
Step 1: 95° C., 10 min; Step 2 (45 cycles): Step 2-1: 95° C., 15 sec; Step 2-2: 60° C., 1 min; Step 3: 65° C., 15 sec; Step 4: 95° C., continuous (every 20° C.); Step 6: 40° C., 10 sec.

[3] = test system: LLC tumor; experiment: Co-administration of anti-Ang2 antibody and cisplatin in LLC lung cancer animal model; type: in vivo, mouse; details: LLC mice; antibody 10 mg/kg i.p. every three days, five times; cisplatin 3 mg/kg i.p. once; control Fc of IgG1
Procedure: The synergistic effect of co-treatment of antibody 10D6 and cisplatin was examined.
In particular, referring to Example 14, LLC tumor cells were subcutaneously injected into mice. When the size of tumors reached 50˜100 mm^3, anti-Ang2 antibody 10D6 was injected at the concentration of 10 mg/kg via an intraperitoneal injection every three days a total of five times. After administering antibody 10D6 twice, 3 mg/kg of cisplatin (Sigma-Aldrich) was intraperitoneally injected once. The size of tumor (V) was calculated using the following formula: Volume (V)=(width)2×length/2
For comparison, the same experiment was performed to a control group treated with Fc of IgG1 and a comparative group treated with antibody 4H10.
In addition, an experiment was performed to examine whether the synergistic effect obtained by co-administration of 10D6 and cisplatin as described above is due to the increased transporting efficiency of the administered cisplatin induced by the vascular normalization by treatment of 10D6. Cisplatin binds to DNA in a living body and induces crosslinking, thereby inducing cell death. Rat monoclonal anti-Cisplatin modified DNA (CP9/19) antibody (1:200, Abcam), which is capable of binding to DNA modified by cisplatin in tumor frozen sections, and hamster anti-CD31 antibody (1:200, Millipore), were used for immunofluorescence staining, and fluorescence images were obtained using LSM5 confocal microscope (Zeiss). In addition, to examine necrotic region, the tumor frozen sections were stained with H&E according to standard protocol, and then, Eosin+ cell region in tumor was observed. The obtained results are illustrated in FIG. 18C.

[4] = test system: Tie2 receptor; experiment: Internalization of Tie2 receptor in HUVEC (confocal microscopy); type: cell-based, human
Procedure: HUVEC (ATCC) cells (1×10^6) were cultured in m-slide 8 wells (#80826, ibidi) for 24 hours and then subjected to serum starvation in serum-free EBM-2 media (Lonza) for 3 hours. 200 ng/ml of Ang1 (R&D systems) or 2ug/ml of Ang2 (R&D systems) and 10 ug/ml of antibody 10D6 were each diluted in EBM-2 media and then, the cells were treated with them and incubated according to time specified in the picture. The cells fixed with 4% formaldehyde (Sigma) was dyed first with an anti-Tie2 antibody (R&D systems) and then subjected to a secondary dye with an anti-goat Alexa 555 antibody (red, Life technology) and an anti-mouse Alexa 488 antibody (green, Life technology). The dyed cells were treated with Vectashield mounting medium with DAPI (Vector labs) and then observed using a confocal laser scanning microscopy (Carl Zeiss).

B1: 10D6: mouse anti-Ang2 monoclonal antibody from hybridoma KCLRF-BP-00295; heavy chain variable region SEQ ID NO: 7, light chain variable region SEQ ID NO: 9 (antibody, V domains shown)
VH: DVQLQESGPGLVKPSQSLSLTCTVTGYSITSDYAWNWIRQFPGNKLEWMGYINYSGNTDYNPSLKSRSSITRDTSKNQFFLQLNSVTTGDTATYYCARGNFEGAMDYWGQGTSVTVSS
VL: SIVMTQTPKFLLVSAGDRVTITCKASQSVSNDVAWYQQKPGQSPKLLIYYASNRYPGVPDRFTGSGYGTDFTFTISTVQAEDLAVYFCQQDYSSPWTFGGGTKLEIK
modifications: Synthetic (Heavy chain variable region of an anti-Ang2 antibody); Synthetic (Light chain variable region of anti-Ang2 antibody)
For B1, which “inhibition of growth of the tumor compared to the control group” value [1] is on record?
The value was “about 40%”.

And the “expression of E-selectin induced by LPS” value [2]?
Its value is “remarkably suppressed”.

And the “tumor size decreased by, compared to the control” value [3]?
Its value is 38.5%.

And the “time from which internalization of the Tie2 receptor started” value ([4]; 2 ug/ml Ang2 and 10 ug/ml antibody)?
The value was 30 min.

What about the “location of internalized Tie2 and antibody” value ([4]; anti-EEA1 antibody dye) of the same molecule?
The value was “located in an early endosome”.
